Patent US7893197B2, “Relaxin-3 chimeric polypeptides and their preparation and use” (Janssen Pharmaceutica N.V., priority 2005, dated 2011)

Legend:
LGR8 = target: T1, LGR8 (Homo sapiens, UniProt Q8WXD0); assay: Stimulation of β-galactosidase expression in SK-N-MC/β-gal cells; assay type: cell-based; conditions: highest concentration tested 1 μM
T1 construct: Human LGR8 cDNA containing the complete coding region was PCR amplified; expressed in transfected cells
Experimental: FIGS. 1A-1D show the activation of GPCR135 and GPCR142 by relaxin-3 B-chain, but not of LGR7 or LGR8. In FIG. 1A, SK-N-MC/β-gal cells expressing human GPCR135 were stimulated with relaxin-3, relaxin-3 B-chain, porcine relaxin, or INSL3 at various concentrations to inhibit the forskolin stimulated β-galactosidase expression. Forskolin was added to cells at a final concentration of 5 μM to stimulate the β-galactosidase expression. FIG. 1B depicts results for SK-N-MC/β-gal cells expressing human GPCR142 stimulated as in FIG. 1A. In FIG. 1C, SK-N-MC/β-gal cells expressing human LGR7 were stimulated with relaxin-3, relaxin-3 B-chain, porcine relaxin, and INSL3 at various concentrations to induce the β-galactosidase expression. The intracellular β-galactosidase activities were measured by a colorimetric assay using CRGP as the substrate and reading the absorbance at a wavelength of 570 nm. For FIG. 1D, SK-N-MC/β-gal cells expressing human LGR8 were stimulated as in FIG. 1C.
FIGS. 4A-4D illustrate the evaluation of the agonist activity of relaxin-3 chimeric polypeptides in biofunctional assays. Different chimeric polypeptides at various concentrations were added to SK-N-MC/β-gal cells expressing human GPCR135 (FIG. 4A) or GPCR142 (FIG. 4B) to inhibit forskolin stimulated β-galactosidase expression. Human relaxin-3 was used as the positive control. In parallel, chimeric polypeptides at various concentrations were added to SK-N-MC/β-gal cells expressing human LGR7 (FIG. 4C) and LGR8 (FIG. 4D) to stimulate β-galactosidase expression. Relaxin-3 and INSL3 were used as positive controls for LGR7 and LGR8, respectively. Intracellular β-galactosidase activity was measured by a colorimetric assay using CRGP as the substrate and reading the absorbance at wavelength of 570 nm. Data represent mean±SEM (n=3).
It has been shown that synthetic human relaxin-3 B-chain alone, but not A-chain, is an agonist for both GPCR135 and GPCR142 (Liu et al., 2003, Journal of Biological Chemistry, 278:50754-50764 and Liu et al., 2003, Journal of Biological Chemistry, 278:50765-50770). Those studies were repeated herein in SK-N-MC/β-gal cells, which harbor a β-galactosidase gene under the control of a cAMP responsive element (CRE) (Liu et al., 2001, Molecular Pharmacology, 59:420-426). In such SK-N-MC/β-gal cells, an increase in intracellular cAMP concentration leads to increased β-galactosidase gene expression, the activity of which is measured using Chlorophenol Red-β-D-Galactopyranoside (CPRG) as the substrate.
The inventive chimeric polypeptides were each independently tested for their ability to activate either GPCR135, GPCR142, LGR7, or LGR8, respectively, in separate pools of SK-N-MC/β-gal cells (see supra), each pool stably expressing one of the respective receptors, as indicated (FIG. 4).
Cells were seeded in 96-well tissue culture plate at a density of 30,000 cells/well in MEM plus 10% fetal serum, sodium pyruvate, penicillin, streptomycin, and G418 (400 mg/L). For cells expressing GPCR135 or GPCR142, forskolin was added to cells at a final concentration of 5 μM to stimulate intracellular cAMP accumulation. Different concentrations of each of the inventive polypeptides were then added to the cells to inhibit the forskolin induced cAMP accumulation. For cells expressing LGR7 or LGR8, intracellular cAMP was stimulated with each of the inventive chimeric polypeptides at various concentrations.
For all cells, after adding the chimeric polypeptides, cells were incubated for 6 additional hours in 37° C. incubator. The media was then aspirated and the β-galactosidase activities measured as previously described (Liu et al., 2001, Molecular Pharmacology, 59:420-426). The results were analyzed by Prism 3.0 software. […]

GPCR142 = target: T2, GPCR142 (Homo sapiens, UniProt Q8TDU9, L329S); assay: Radioligand competition binding, [125I]-relaxin-3, membranes of transfected COS-7 cells; conditions: for binding / affinity for GPCR142, in words: highest concentration 1 μM
T2 construct: expressed in transfected cells
From the text: FIGS. 3A-3D illustrate the characterization of various relaxin-3 chimeric polypeptides using radioligand binding assays. Different relaxin-3 chimeric polypeptides were characterized for their receptor binding properties for human recombinant GPCR135 (FIG. 3A), GPCR142 (FIG. 3B), LGR7 (FIG. 3C), or LGR8 (FIG. 3D). For GPCR135, GPCR142, and LGR7, [^125I]-relaxin-3 was used as the radioligand at a final concentration of 100 pM. Different unlabeled peptides were used in the binding assay as the competitors. For LGR8, [^125I]-INSL3 was used as the radioligand at a final concentration of 100 pM. Different unlabeled peptides including relaxin-3 chimeras at various concentrations were added to the binding assay as the competitors. Data represent mean±SEM (n=3).
Radioligand binding assays for GPCR135 and GPCR142 were performed as previously described (Liu et al., 2003, Journal of Biological Chemistry, 278:50754-50764 and Liu et al., 2003, Journal of Biological Chemistry, 278:50765-50770). Membranes from COS-7 cells transiently transfected with either the GPCR135 expression vector or the GPCR142 expression vector, each described supra, were incubated with [^125I]-relaxin-3 at a final concentration 100 pM in 96-well plates. Peptides for competition binding studies were added to the binding mix (final volume: 200 μl) in binding buffer [50 mM Tris-HCl, pH 7.5, 5 mM EDTA, 1% bovine serum albumin, 0.1% protease inhibitor cocktails (Sigma)]. The binding mixtures were incubated at room temperature for 1 hour, filtered through GFC plates (Packard) pre-saturated with 0.3% Polyethylenimine (Sigma), and washed with cold washing buffer (50 mM Tris-HCl, pH 7.5, 5 mM EDTA). Microscint-40 was added to each well and the bound [^125I]-relaxin-3 was counted in a scintillation counter (TopCount/NTX, Packard).

T1 sequence (Q8WXD0 whole entry): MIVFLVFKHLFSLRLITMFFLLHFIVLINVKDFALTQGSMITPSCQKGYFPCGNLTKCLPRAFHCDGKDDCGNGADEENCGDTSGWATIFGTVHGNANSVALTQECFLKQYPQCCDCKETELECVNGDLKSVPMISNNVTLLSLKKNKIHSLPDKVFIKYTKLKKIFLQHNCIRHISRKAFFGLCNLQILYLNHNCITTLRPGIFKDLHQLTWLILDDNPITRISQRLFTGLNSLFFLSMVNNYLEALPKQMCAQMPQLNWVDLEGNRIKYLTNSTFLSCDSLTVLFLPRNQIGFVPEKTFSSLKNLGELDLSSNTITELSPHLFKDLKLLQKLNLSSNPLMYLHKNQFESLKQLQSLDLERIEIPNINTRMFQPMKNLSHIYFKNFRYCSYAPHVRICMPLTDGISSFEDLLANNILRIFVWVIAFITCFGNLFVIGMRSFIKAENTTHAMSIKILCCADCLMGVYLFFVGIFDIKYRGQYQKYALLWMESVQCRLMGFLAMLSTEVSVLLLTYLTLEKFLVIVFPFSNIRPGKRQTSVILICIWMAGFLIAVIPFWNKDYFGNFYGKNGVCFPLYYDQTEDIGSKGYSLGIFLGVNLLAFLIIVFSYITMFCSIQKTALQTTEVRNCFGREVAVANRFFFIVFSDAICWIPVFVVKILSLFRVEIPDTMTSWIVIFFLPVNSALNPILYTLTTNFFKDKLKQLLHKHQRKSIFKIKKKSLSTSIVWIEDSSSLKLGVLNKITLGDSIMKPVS
T2 sequence (Q8TDU9 whole entry L329S): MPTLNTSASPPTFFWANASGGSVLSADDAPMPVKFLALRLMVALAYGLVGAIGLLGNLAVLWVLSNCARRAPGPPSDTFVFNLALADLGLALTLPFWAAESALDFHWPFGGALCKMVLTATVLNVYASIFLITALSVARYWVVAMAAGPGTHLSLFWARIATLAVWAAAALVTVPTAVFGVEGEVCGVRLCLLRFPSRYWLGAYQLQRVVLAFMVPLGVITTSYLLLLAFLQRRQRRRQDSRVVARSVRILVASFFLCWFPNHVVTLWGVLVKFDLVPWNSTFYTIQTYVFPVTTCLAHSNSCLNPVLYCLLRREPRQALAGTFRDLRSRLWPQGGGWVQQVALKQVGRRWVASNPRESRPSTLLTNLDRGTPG

In the case of “R3/I4: chimeric polypeptide: human relaxin-3 B-chain and INSL4 A-chain; mature polypeptide SEQ ID NO:22 (RAAPYGVRLCGREFIRAVIFTCGGSRWFDPFCCEVICDDGTSVKLC; Human Relaxin-3/Insulin-like 4 chimeric mature polypeptide)”, the “activation of LGR8, in words” value (LGR8) is reported as “no activity” and the “binding / affinity for GPCR142, in words” value (GPCR142) is reported as “marginal binding at the highest concentration (1 μM)”.

For “R3/I5: chimeric polypeptide: human relaxin-3 B-chain and INSL5 A-chain; mature polypeptide SEQ ID NO:23 (RAAPYGVRLCGREFIRAVIFTCGGSRWQDLQTLCCTDGCSMTDLSALC; Human Relaxin-3/Insulin-like 5 chimeric mature polypeptide)”, the “activation of LGR8, in words” value (LGR8) was “inactive” and the “binding / affinity for GPCR142, in words” value (GPCR142) was “low nanomolar range”.

For “R3/I6: chimeric polypeptide: human relaxin-3 B-chain and INSL6 A-chain; mature polypeptide SEQ ID NO:24 (RAAPYGVRLCGREFIRAVIFTCGGSRWGYSEKCCLTGCTKEELSIAC; Human Relaxin-3/Insulin-like 6 chimeric mature polypeptide)”, the “activation of LGR8, in words” value (LGR8) was “inactive” and the “affinity for GPCR142” value (GPCR142; discussion) was 10 to 15 nM.
